Laboratory results reported in ChEMBL document CHEMBL1212811, “Chemical phylogenetics of histone deacetylases” (Nat Chem Biol, 2010).

Experiments:
[1] = substrate: CC(=O)N[C@@H](CC(C)C)C(=O)NCC(=O)N[C@@H](CCCCNC(=O)C(F)(F)F)C(=O)Nc1ccc2c(C)cc(=O)oc2c1; test: Activity of HDAC9 at 10 uM
[2] = substrate: CC(=O)NCCCC[C@H](NC(=O)CNC(=O)[C@H](CC(C)C)NC(C)=O)C(=O)Nc1ccc2c(C)cc(=O)oc2c1; details: 10 uM
[3] = substrate: CC(=O)N[C@@H](CC(C)C)C(=O)NCC(=O)N[C@@H](CCCCNC(=O)C(F)(F)F)C(=O)Nc1ccc2c(C)cc(=O)oc2c1; test: Activity of HDAC8 at 10 uM
[4] = substrate: CC(=O)N[C@@H](CC(C)C)C(=O)NCC(=O)N[C@@H](CCCCNC(=O)C(F)(F)F)C(=O)Nc1ccc2c(C)cc(=O)oc2c1; test: Activity of HDAC7 at 10 uM
[5] = substrate: CC(=O)N[C@@H](CC(C)C)C(=O)NCC(=O)N[C@@H](CCCCNC(=O)C(F)(F)F)C(=O)Nc1ccc2c(C)cc(=O)oc2c1; test: Activity of HDAC4 at 10 uM
[6] = substrate: CC(=O)NCCCC[C@H](NC(=O)CNC(=O)[C@H](CC(C)C)NC(C)=O)C(=O)Nc1ccc2c(C)cc(=O)oc2c1; details: 10 uM; remark: listed apart in the source

B1: Histone deacetylase 9 (Homo sapiens), Q9UKV0 (protein)
chain: MHSMISSVDVKSEVPVGLEPISPLDLRTDLRMMMPVVDPVVREKQLQQELLLIQQQQQIQKQLLIAEFQKQHENLTRQHQAQLQEHIKELLAIKQQQELLEKEQKLEQQRQEQEVERHRREQQLPPLRGKDRGRERAVASTEVKQKLQEFLLSKSATKDTPTNGKNHSVSRHPKLWYTAAHHTSLDQSSPPLSGTSPSYKYTLPGAQDAKDDFPLRKTASEPNLKVRSRLKQKVAERRSSPLLRRKDGNVVTSFKKRMFEVTESSVSSSSPGSGPSSPNNGPTGSVTENETSVLPPTPHAEQMVSQQRILIHEDSMNLLSLYTSPSLPNITLGLPAVPSQLNASNSLKEKQKCETQTLRQGVPLPGQYGGSIPASSSHPHVTLEGKPPNSSHQALLQHLLLKEQMRQQKLLVAGGVPLHPQSPLATKERISPGIRGTHKLPRHRPLNRTQSAPLPQSTLAQLVIQQQHQQFLEKQKQYQQQIHMNKLLSKSIEQLKQPGSHLEEAEEELQGDQAMQEDRAPSSGNSTRSDSSACVDDTLGQVGAVKVKEEPVDSDEDAQIQEMESGEQAAFMQQPFLEPTHTRALSVRQAPLAAVGMDGLEKHRLVSRTHSSPAASVLPHPAMDRPLQPGSATGIAYDPLMLKHQCVCGNSTTHPEHAGRIQSIWSRLQETGLLNKCERIQGRKASLEEIQLVHSEHHSLLYGTNPLDGQKLDPRILLGDDSQKFFSSLPCGGLGVDSDTIWNELHSSGAARMAVGCVIELASKVASGELKNGFAVVRPPGHHAEESTAMGFCFFNSVAITAKYLRDQLNISKILIVDLDVHHGNGTQQAFYADPSILYISLHRYDEGNFFPGSGAPNEVGTGLGEGYNINIAWTGGLDPPMGDVEYLEAFRTIVKPVAKEFDPDMVLVSAGFDALEGHTPPLGGYKVTAKCFGHLTKQLMTLADGRVVLALEGGHDLTAICDASEACVNALLGNELEPLAEDILHQSPNMNAVISLQKIIEIQSMSLKFS
Km [1]: 37 µM

B2: Protein deacetylase HDAC6 (Homo sapiens), Q9UBN7 (protein)
chain: MTSTGQDSTTTRQRRSRQNPQSPPQDSSVTSKRNIKKGAVPRSIPNLAEVKKKGKMKKLGQAMEEDLIVGLQGMDLNLEAEALAGTGLVLDEQLNEFHCLWDDSFPEGPERLHAIKEQLIQEGLLDRCVSFQARFAEKEELMLVHSLEYIDLMETTQYMNEGELRVLADTYDSVYLHPNSYSCACLASGSVLRLVDAVLGAEIRNGMAIIRPPGHHAQHSLMDGYCMFNHVAVAARYAQQKHRIRRVLIVDWDVHHGQGTQFTFDQDPSVLYFSIHRYEQGRFWPHLKASNWSTTGFGQGQGYTINVPWNQVGMRDADYIAAFLHVLLPVALEFQPQLVLVAAGFDALQGDPKGEMAATPAGFAQLTHLLMGLAGGKLILSLEGGYNLRALAEGVSASLHTLLGDPCPMLESPGAPCRSAQASVSCALEALEPFWEVLVRSTETVERDNMEEDNVEESEEEGPWEPPVLPILTWPVLQSRTGLVYDQNMMNHCNLWDSHHPEVPQRILRIMCRLEELGLAGRCLTLTPRPATEAELLTCHSAEYVGHLRATEKMKTRELHRESSNFDSIYICPSTFACAQLATGAACRLVEAVLSGEVLNGAAVVRPPGHHAEQDAACGFCFFNSVAVAARHAQTISGHALRILIVDWDVHHGNGTQHMFEDDPSVLYVSLHRYDHGTFFPMGDEGASSQIGRAAGTGFTVNVAWNGPRMGDADYLAAWHRLVLPIAYEFNPELVLVSAGFDAARGDPLGGCQVSPEGYAHLTHLLMGLASGRIILILEGGYNLTSISESMAACTRSLLGDPPPLLTLPRPPLSGALASITETIQVHRRYWRSLRVMKVEDREGPSSSKLVTKKAPQPAKPRLAERMTTREKKVLEAGMGKVTSASFGEESTPGQTNSETAVVALTQDQPSEAATGGATLAQTISEAAIGGAMLGQTTSEEAVGGATPDQTTSEETVGGAILDQTTSEDAVGGATLGQTTSEEAVGGATLAQTTSEAAMEGATLDQTTSEEAPGGTELIQTPLASSTDHQTPPTSPVQGTTPQISPSTLIGSLRTLELGSESQGASESQAPGEENLLGEAAGGQDMADSMLMQGSRGLTDQAIFYAVTPLPWCPHLVAVCPIPAAGLDVTQPCGDCGTIQENWVCLSCYQVYCGRYINGHMLQHHGNSGHPLVLSYIDLSAWCYYCQAYVHHQALLDVKNIAHQNKFGEDMPHPH
Km [2]: 16 µM

B3: Histone deacetylase 8 (Homo sapiens), Q9BY41 (protein)
chain: MEEPEEPADSGQSLVPVYIYSPEYVSMCDSLAKIPKRASMVHSLIEAYALHKQMRIVKPKVASMEEMATFHTDAYLQHLQKVSQEGDDDHPDSIEYGLGYDCPATEGIFDYAAAIGGATITAAQCLIDGMCKVAINWSGGWHHAKKDEASGFCYLNDAVLGILRLRRKFERILYVDLDLHHGDGVEDAFSFTSKVMTVSLHKFSPGFFPGTGDVSDVGLGKGRYYSVNVPIQDGIQDEKYYQICESVLKEVYQAFNPKAVVLQLGADTIAGDPMCSFNMTPVGIGKCLKYILQWQLATLILGGGGYNLANTARCWTYLTGVILGKTLSSEIPDHEFFTAYGPDYVLEITPSCRPDRNEPHRIQQILNYIKGNLKHVV
Km [3]: 190 µM

B4: Histone deacetylase 7 (Homo sapiens), Q8WUI4 (protein)
chain: MDLRVGQRPPVEPPPEPTLLALQRPQRLHHHLFLAGLQQQRSVEPMRLSMDTPMPELQVGPQEQELRQLLHKDKSKRSAVASSVVKQKLAEVILKKQQAALERTVHPNSPGIPYRTLEPLETEGATRSMLSSFLPPVPSLPSDPPEHFPLRKTVSEPNLKLRYKPKKSLERRKNPLLRKESAPPSLRRRPAETLGDSSPSSSSTPASGCSSPNDSEHGPNPILGSEALLGQRLRLQETSVAPFALPTVSLLPAITLGLPAPARADSDRRTHPTLGPRGPILGSPHTPLFLPHGLEPEAGGTLPSRLQPILLLDPSGSHAPLLTVPGLGPLPFHFAQSLMTTERLSGSGLHWPLSRTRSEPLPPSATAPPPPGPMQPRLEQLKTHVQVIKRSAKPSEKPRLRQIPSAEDLETDGGGPGQVVDDGLEHRELGHGQPEARGPAPLQQHPQVLLWEQQRLAGRLPRGSTGDTVLLPLAQGGHRPLSRAQSSPAAPASLSAPEPASQARVLSSSETPARTLPFTTGLIYDSVMLKHQCSCGDNSRHPEHAGRIQSIWSRLQERGLRSQCECLRGRKASLEELQSVHSERHVLLYGTNPLSRLKLDNGKLAGLLAQRMFVMLPCGGVGVDTDTIWNELHSSNAARWAAGSVTDLAFKVASRELKNGFAVVRPPGHHADHSTAMGFCFFNSVAIACRQLQQQSKASKILIVDWDVHHGNGTQQTFYQDPSVLYISLHRHDDGNFFPGSGAVDEVGAGSGEGFNVNVAWAGGLDPPMGDPEYLAAFRIVVMPIAREFSPDLVLVSAGFDAAEGHPAPLGGYHVSAKCFGYMTQQLMNLAGGAVVLALEGGHDLTAICDASEACVAALLGNRVDPLSEEGWKQKPNLNAIRSLEAVIRVHSKYWGCMQRLASCPDSWVPRVPGADKEEVEAVTALASLSVGILAEDRPSEQLVEEEEPMNL
Km [4]: 19.8 µM

B5: Histone deacetylase 4 (Homo sapiens), P56524 (protein)
chain: MSSQSHPDGLSGRDQPVELLNPARVNHMPSTVDVATALPLQVAPSAVPMDLRLDHQFSLPVAEPALREQQLQQELLALKQKQQIQRQILIAEFQRQHEQLSRQHEAQLHEHIKQQQEMLAMKHQQELLEHQRKLERHRQEQELEKQHREQKLQQLKNKEKGKESAVASTEVKMKLQEFVLNKKKALAHRNLNHCISSDPRYWYGKTQHSSLDQSSPPQSGVSTSYNHPVLGMYDAKDDFPLRKTASEPNLKLRSRLKQKVAERRSSPLLRRKDGPVVTALKKRPLDVTDSACSSAPGSGPSSPNNSSGSVSAENGIAPAVPSIPAETSLAHRLVAREGSAAPLPLYTSPSLPNITLGLPATGPSAGTAGQQDAERLTLPALQQRLSLFPGTHLTPYLSTSPLERDGGAAHSPLLQHMVLLEQPPAQAPLVTGLGALPLHAQSLVGADRVSPSIHKLRQHRPLGRTQSAPLPQNAQALQHLVIQQQHQQFLEKHKQQFQQQQLQMNKIIPKPSEPARQPESHPEETEEELREHQALLDEPYLDRLPGQKEAHAQAGVQVKQEPIESDEEEAEPPREVEPGQRQPSEQELLFRQQALLLEQQRIHQLRNYQASMEAAGIPVSFGGHRPLSRAQSSPASATFPVSVQEPPTKPRFTTGLVYDTLMLKHQCTCGSSSSHPEHAGRIQSIWSRLQETGLRGKCECIRGRKATLEELQTVHSEAHTLLYGTNPLNRQKLDSKKLLGSLASVFVRLPCGGVGVDSDTIWNEVHSAGAARLAVGCVVELVFKVATGELKNGFAVVRPPGHHAEESTPMGFCYFNSVAVAAKLLQQRLSVSKILIVDWDVHHGNGTQQAFYSDPSVLYMSLHRYDDGNFFPGSGAPDEVGTGPGVGFNVNMAFTGGLDPPMGDAEYLAAFRTVVMPIASEFAPDVVLVSSGFDAVEGHPTPLGGYNLSARCFGYLTKQLMGLAGGRIVLALEGGHDLTAICDASEACVSALLGNELDPLPEKVLQQRPNANAVRSMEKVMEIHSKYWRCLQRTTSTAGRSLIEAQTCENEEAETVTAMASLSVGVKPAEKRPDEEPMEEEPPL
Km [5]: 10.3 µM

B6: Histone deacetylase 3 (Homo sapiens), O15379 (protein)
chain: MAKTVAYFYDPDVGNFHYGAGHPMKPHRLALTHSLVLHYGLYKKMIVFKPYQASQHDMCRFHSEDYIDFLQRVSPTNMQGFTKSLNAFNVGDDCPVFPGLFEFCSRYTGASLQGATQLNNKICDIAINWAGGLHHAKKFEASGFCYVNDIVIGILELLKYHPRVLYIDIDIHHGDGVQEAFYLTDRVMTVSFHKYGNYFFPGTGDMYEVGAESGRYYCLNVPLRDGIDDQSYKHLFQPVINQVVDFYQPTCIVLQCGADSLGCDRLGCFNLSIRGHGECVEYVKSFNIPLLVLGGGGYTVRNVARCWTYETSLLVEEAISEELPYSEYFEYFAPDFTLHPDVSTRIENQNSRQYLDQIRQTIFENLKMLNHAPSVQIHDVPADLLTYDRTDEADAEERGPEENYSRPEAPNEFYDGDHDNDKESDVEI
Km [6]: 6 µM
